± gives the uncertainty stated by the source.
Experiment: self-splicing fitness, log relative to wild type (ln ratio); higher = more splicing; Tetrahymena group I intron in knt gene, E. coli kanamycin selection, DiMSum; sequences stand for … in CUCUCU…GGAGGGAAAAGUUAUCAGGCAUGCACCUGGUAGCUAGUCUUUAAACCAAUAGAUUGCAUCGGUUUAAAAGGCAAGACCGUCAAAUUGCGGGAAAGGGGUCAACAGCCGUUCAGUACCAAGUCUCAGGGGAAACUUUGAGAUGGCCUUGCAAAGGGUAUGGUAAUAAGCUGACGGACAUGGUCCUAACCACGCAGCCAAGUCCUAAGUCAACAGAUCUUCUGUUGAUAUGGAUGCAGUUCACAGACUAAAUGUCGGUCGGGGAAGAUGUAUUCUUCUCAUAAGAUAUAGUCGGACCUCUCCUUAAUGGGAGCUAGCGGAUGAAGUGAUGCAACACUGGAGCCGCUGGGAACUAAUUUGUAUGCGAAAGUAUAUUGAUUAGUUUUGGAGUACUCGUGGUCG
Procedure, shortened: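 A randomised library covering all eight P1ex-region intron nucleotides was built with the intron in the knt kanamycin-resistance gene on pET-22b(+) and held in E. coli BL21(DE3). Cells were grown overnight at 37°C or 30°C on LB agar, with or without 25 μg/mL kanamycin, plus 100 μg/mL carbenicillin, 50 μM IPTG and 0.2% rhamnose, and pooled colonies were amplicon-sequenced on an Illumina HiSeq 2500. DiMSum fitness is the error-weighted combination of wild-type-normalised replicate fold changes, kanamycin versus none.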

Row | Sequence | self-splicing fitness (ln) (30 °C) | self-splicing fitness (ln) (37 °C)
1 | UGACAGCAAUAUUACGAACG | 0.00619 ± 0.095 | 0.256 ± 0.1
2 | UGACAGCAAUAUUACGACAA | -0.197 ± 0.087 | 0.15 ± 0.1
3 | UGACAGCAAUAUUACGACCA | -0.143 ± 0.1 | 0.216 ± 0.15
4 | UGACAGCAAUAUUACGACUG | -0.341 ± 0.06 | 0.371 ± 0.091
5 | UGACAGCAAUAUUACGAGUG | -1.09 ± 0.054 | -0.833 ± 0.077
6 | UGACAGCAAUAUUACGCAAG | -3.51 ± 0.27 | -2.73 ± 0.21
7 | UGACAGCAAUAUUACGCCGG | -0.618 ± 0.12 | -0.791 ± 0.15
8 | UGACAGCAAUAUUACGCCUC | -3.41 ± 0.26 | -3.24 ± 0.47
9 | UGACAGCAAUAUUACGCCUG | -0.292 ± 0.1 | 0.595 ± 0.14
10 | UGACAGCAAUAUUACGCUCU | -0.946 ± 0.083 | -0.389 ± 0.093
11 | UGACAGCAAUAUUACGGAGG | -4.41 ± 0.29 | -3.93 ± 0.21
12 | UGACAGCAAUAUUACGGAUC | -4.78 ± 0.32 | -2.21 ± 0.16
13 | UGACAGCAAUAUUACGGCCU | -0.801 ± 0.068 | 0.131 ± 0.078
14 | UGACAGCAAUAUUACGGCUA | -0.14 ± 0.079 | 0.942 ± 0.11
15 | UGACAGCAAUAUUACGGCUC | -1.37 ± 0.16 | -0.546 ± 0.17
16 | UGACAGCAAUAUUACGGUAU | -3.58 ± 0.2 | -2.45 ± 0.21
17 | UGACAGCAAUAUUACGGUUG | -2.49 ± 0.13 | -1.56 ± 0.15
18 | UGACAGCAAUAUUACGUAUG | -1.56 ± 0.058 | -0.368 ± 0.073
19 | UGACAGCAAUAUUACGUGCG | -1.12 ± 0.086 | -0.119 ± 0.097
20 | UGACAGCAAUAUUACGUUUA | -0.565 ± 0.061 | -0.556 ± 0.07
21 | UGAGAGCAAUAUUACGAAAA |  | 0.153 ± 0.41
22 | UGAGAGCAAUAUUACGACAA | -0.796 ± 0.32 | -1.99 ± 0.43
23 | UGAGAGCAAUAUUACGAGGC | -2.98 ± 0.22 | -2.17 ± 0.33
24 | UGAGAGCAAUAUUACGAGGG | -3.68 ± 0.35 | -1.09 ± 0.36
25 | UGAGAGCAAUAUUACGCAAA |  | -0.61 ± 0.36

Row | Sequence | self-splicing fitness (ln) (30 °C) | self-splicing fitness (ln) (37 °C)
26 | UGAGAGCAAUAUUACGCAAG | -3.21 ± 0.32 | -2.74 ± 0.44
27 | UGAGAGCAAUAUUACGCCGU | -3.58 ± 0.47 | 
28 | UGAGAGCAAUAUUACGCUCG |  | -1.32 ± 0.45
29 | UGAGAGCAAUAUUACGCUGC | -2.67 ± 0.42 | 
30 | UGAGAGCAAUAUUACGGCUU | -4.13 ± 0.42 | 
31 | UGAGAGCAAUAUUACGGGUA | -2.66 ± 0.37 | 
32 | UGAGAGCAAUAUUACGUAUA | -3.03 ± 0.42 | -1.66 ± 0.35
33 | UGAGAGCAAUAUUACGUCGA | -2.82 ± 0.39 | -3.1 ± 0.47
34 | UGAGAGCAAUAUUACGUGAU | -3.97 ± 0.46 | -2.72 ± 0.38
35 | UGAGAGCAAUAUUACGUUAU | -2.88 ± 0.23 | -2.89 ± 0.43
36 | UGAUAGCAAUAUUACGAAGC | -3.24 ± 0.32 | 
37 | UGAUAGCAAUAUUACGCAUA | -2.13 ± 0.19 | -0.977 ± 0.16
38 | UGAUAGCAAUAUUACGCAUC |  | -1.53 ± 0.49
39 | UGAUAGCAAUAUUACGCCGU | -4.2 ± 0.43 | -2.01 ± 0.2
40 | UGAUAGCAAUAUUACGCGUC | -3.08 ± 0.31 | 
41 | UGAUAGCAAUAUUACGGAUA | -3.57 ± 0.25 | -1.6 ± 0.19
42 | UGAUAGCAAUAUUACGGGGC | -3.5 ± 0.29 | 
43 | UGAUAGCAAUAUUACGGUAG | -2.38 ± 0.2 | -1.12 ± 0.17
44 | UGAUAGCAAUAUUACGGUUC |  | -1.46 ± 0.27
45 | UGAUAGCAAUAUUACGUAGA | -2.3 ± 0.15 | -0.984 ± 0.17
46 | UGAUAGCAAUAUUACGUGAG | -0.705 ± 0.05 | -0.543 ± 0.087
47 | UGAUAGCAAUAUUACGUGCG | -0.579 ± 0.1 | -0.921 ± 0.087
48 | UGAUAGCAAUAUUACGUGUU | -3.87 ± 0.19 | -2.6 ± 0.2
49 | UGAUAGCAAUAUUACGUUCA | -0.43 ± 0.087 | 0.075 ± 0.093
50 | UGAUAGCAAUAUUACGUUGC | -2.16 ± 0.17 | -2.32 ± 0.28

Row | Sequence | self-splicing fitness (ln) (30 °C) | self-splicing fitness (ln) (37 °C)
51 | UGAUAGCAAUAUUACGUUUG | -1.26 ± 0.073 | 0.0201 ± 0.099
52 | UGCAAGCAAUAUUACGACGC | -1.44 ± 0.4 | -0.865 ± 0.24
53 | UGCAAGCAAUAUUACGACUA | 0.0901 ± 0.093 | 0.525 ± 0.11
54 | UGCAAGCAAUAUUACGAGUA | -0.888 ± 0.083 | 0.181 ± 0.083
55 | UGCAAGCAAUAUUACGAUGA | -0.161 ± 0.093 | 0.0415 ± 0.097
56 | UGCAAGCAAUAUUACGCACC | -1.89 ± 0.24 | -1.25 ± 0.32
57 | UGCAAGCAAUAUUACGCAUA | -2.59 ± 0.2 | -2.33 ± 0.2
58 | UGCAAGCAAUAUUACGCCCC | -0.548 ± 0.19 | -0.556 ± 0.32
59 | UGCAAGCAAUAUUACGCGGG | -3.73 ± 0.27 | -2.42 ± 0.22
60 | UGCAAGCAAUAUUACGCGUA | -1.45 ± 0.18 | -1.57 ± 0.17
61 | UGCAAGCAAUAUUACGCUUC | -3.15 ± 0.24 | -3.33 ± 0.32
62 | UGCAAGCAAUAUUACGGAAU | -2.88 ± 0.19 | -2.45 ± 0.2
63 | UGCAAGCAAUAUUACGGAUC | -3.09 ± 0.17 | -2.38 ± 0.16
64 | UGCAAGCAAUAUUACGGGCA | -1.4 ± 0.11 | -0.815 ± 0.096
65 | UGCAAGCAAUAUUACGGGCG | -1.41 ± 0.087 | -0.699 ± 0.1
66 | UGCAAGCAAUAUUACGGGUC | -3.11 ± 0.24 | -2.11 ± 0.21
67 | UGCAAGCAAUAUUACGGUUC | -2.93 ± 0.19 | -1.92 ± 0.17
68 | UGCAAGCAAUAUUACGUAGC | -3.54 ± 0.37 | -2.48 ± 0.41
69 | UGCAAGCAAUAUUACGUAUG | -3.05 ± 0.16 | -0.321 ± 0.1
70 | UGCAAGCAAUAUUACGUCAA | -2.14 ± 0.098 | -0.795 ± 0.073
71 | UGCAAGCAAUAUUACGUCUA | -0.304 ± 0.047 | 0.371 ± 0.062
72 | UGCAAGCAAUAUUACGUUAG | -2.79 ± 0.14 | -2.02 ± 0.15
73 | UGCCAGCAAUAUUACGACAC | -2.55 ± 0.35 | -2.68 ± 0.38
74 | UGCCAGCAAUAUUACGAGAU | -3.75 ± 0.26 | -2.32 ± 0.21
75 | UGCCAGCAAUAUUACGAGUG | -1.32 ± 0.064 | -0.537 ± 0.079

Row | Sequence | self-splicing fitness (ln) (30 °C) | self-splicing fitness (ln) (37 °C)
76 | UGCCAGCAAUAUUACGAUAA | -1.88 ± 0.14 | -1.19 ± 0.15
77 | UGCCAGCAAUAUUACGCAAU | -4.51 ± 0.2 | -2.59 ± 0.13
78 | UGCCAGCAAUAUUACGCACC | -2.19 ± 0.28 | -1.32 ± 0.35
79 | UGCCAGCAAUAUUACGCAGC |  | -2.15 ± 0.42
80 | UGCCAGCAAUAUUACGCGUG | -1.71 ± 0.086 | -0.381 ± 0.089
81 | UGCCAGCAAUAUUACGCUGC | -3.85 ± 0.31 | -2.47 ± 0.28
82 | UGCCAGCAAUAUUACGCUGG | -3.35 ± 0.24 | -2.63 ± 0.28
83 | UGCCAGCAAUAUUACGCUUA | -0.602 ± 0.063 | 0.791 ± 0.084
84 | UGCCAGCAAUAUUACGGCAG | -2.25 ± 0.093 | -1.15 ± 0.1
85 | UGCCAGCAAUAUUACGGCUC | -2.89 ± 0.21 | -1.48 ± 0.23
86 | UGCCAGCAAUAUUACGGGAC | -3.51 ± 0.34 | -1.95 ± 0.3
87 | UGCCAGCAAUAUUACGGGAU | -3.16 ± 0.13 | -2.44 ± 0.18
88 | UGCCAGCAAUAUUACGGGCA | -3.85 ± 0.27 | -2.48 ± 0.24
89 | UGCCAGCAAUAUUACGGGGU | -3.57 ± 0.21 | -2.48 ± 0.2
90 | UGCCAGCAAUAUUACGUAAU | -2.36 ± 0.14 | -2.16 ± 0.18
91 | UGCCAGCAAUAUUACGUAUC | -3.22 ± 0.19 | -3.05 ± 0.28
92 | UGCCAGCAAUAUUACGUCGU | -2.68 ± 0.14 | -1.9 ± 0.15
93 | UGCCAGCAAUAUUACGUGUA | -1.26 ± 0.058 | -0.551 ± 0.059
94 | UGCCAGCAAUAUUACGUUCU | -2.37 ± 0.17 | -1.23 ± 0.14
95 | UGCCAGCAAUAUUACGUUUA | -2.56 ± 0.086 | -1.51 ± 0.072
96 | UGCGAGCAAUAUUACGAAAU | -2.85 ± 0.18 | -2.65 ± 0.38
97 | UGCGAGCAAUAUUACGAACG | -1.07 ± 0.14 | -1.05 ± 0.16
98 | UGCGAGCAAUAUUACGAAGC |  | -2.3 ± 0.42
99 | UGCGAGCAAUAUUACGAUAU |  | -2.61 ± 0.36
100 | UGCGAGCAAUAUUACGAUCA | 0.0986 ± 0.13 | 0.104 ± 0.14

Reference: the supplement of paper PMC7877785
